Measured values taken from the supplement of paper PMC9112550, “Optimization of the antimicrobial peptide Bac7 by deep mutational scanning” (BMC Biology, 2022).

Tested on: Escherichia coli TOP10
Experiment: shrunken log2 fold change of peptide-encoding DNA abundance (4.5 h post-induction vs induction); higher = less antimicrobial activity (less host growth inhibition)
Details: time post-induction: 4.5 h; library: site-saturation at positions 5, 18, 19, 20
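Further: peptides expressed intracellularly from a pBAD plasmid library in pooled LB shake-flask culture, induced with 0.3% L-arabinose, DNA abundance read by NGS, three biological replicates, DESeq2 with apeglm shrinkage.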

Sequence	shrunken log2 fold change
RRIRDRPPRLPRPRPRPSPDPRP	0.312
RRIRSRPPRLPRPRPRPAILPRP	-0.313
RRIRNRPPRLPRPRPRPQATPRP	0.991
RRIRDRPPRLPRPRPRPKADPRP	-0.0266
RRIRARPPRLPRPRPRPAEAPRP	0.161
RRIRYRPPRLPRPRPRPWCIPRP	0.0404
RRIRTRPPRLPRPRPRPSEHPRP	-0.383
RRIRDRPPRLPRPRPRPNIQPRP	-0.0288
RRIRMRPPRLPRPRPRPRSMPRP	-0.00173
RRIRMRPPRLPRPRPRPARHPRP	0.974
RRIRQRPPRLPRPRPRPFVYPRP	-0.755
RRIRIRPPRLPRPRPRPFYCPRP	-0.633
RRIRWRPPRLPRPRPRPEEDPRP	0.00839
RRIRQRPPRLPRPRPRPRLTPRP	0.178
RRIRIRPPRLPRPRPRPLFEPRP	-0.251
RRIRYRPPRLPRPRPRPCTWPRP	-0.303
RRIRNRPPRLPRPRPRPVIMPRP	0.178
RRIRMRPPRLPRPRPRPWMHPRP	-0.128
RRIRYRPPRLPRPRPRPLADPRP	-0.213
RRIRIRPPRLPRPRPRPGWFPRP	-0.141
RRIRPRPPRLPRPRPRPFTIPRP	-0.0323
RRIRKRPPRLPRPRPRPLFFPRP	0.147
RRIRIRPPRLPRPRPRPACCPRP	-0.086
RRIRKRPPRLPRPRPRPKLPPRP	0.244
RRIRPRPPRLPRPRPRPMQKPRP	0.0491

Sequence	shrunken log2 fold change
RRIRERPPRLPRPRPRPSWKPRP	-0.345
RRIRNRPPRLPRPRPRPGEIPRP	0.627
RRIRVRPPRLPRPRPRPPMLPRP	-0.037
RRIRKRPPRLPRPRPRPAFFPRP	0.411
RRIRQRPPRLPRPRPRPWRCPRP	-0.149
RRIRGRPPRLPRPRPRPGFHPRP	0.296
RRIRSRPPRLPRPRPRPELNPRP	0.399
RRIRTRPPRLPRPRPRPVLCPRP	0.0726
RRIRKRPPRLPRPRPRPVQFPRP	-0.0421
RRIRWRPPRLPRPRPRPEVGPRP	1.38
RRIRPRPPRLPRPRPRPLHRPRP	-0.284
RRIRSRPPRLPRPRPRPVLDPRP	-0.058
RRIRQRPPRLPRPRPRPTAYPRP	0.14
RRIRNRPPRLPRPRPRPMARPRP	0.0994
RRIRCRPPRLPRPRPRPQRCPRP	-0.0802
RRIRTRPPRLPRPRPRPVDQPRP	-0.123
RRIRGRPPRLPRPRPRPGLEPRP	1.1
RRIRTRPPRLPRPRPRPDIEPRP	-0.117
RRIRQRPPRLPRPRPRPPNNPRP	-0.259
RRIRERPPRLPRPRPRPVYLPRP	-0.267
RRIRDRPPRLPRPRPRPDYDPRP	-0.0133
RRIRYRPPRLPRPRPRPDFFPRP	0.373
RRIRTRPPRLPRPRPRPRHFPRP	-0.085
RRIRARPPRLPRPRPRPLSCPRP	0.214
RRIRTRPPRLPRPRPRPDPCPRP	0.0297

Sequence	shrunken log2 fold change
RRIRERPPRLPRPRPRPAMYPRP	-0.205
RRIRVRPPRLPRPRPRPHCHPRP	-0.105
RRIRTRPPRLPRPRPRPVRLPRP	-0.0555
RRIRLRPPRLPRPRPRPSLWPRP	0.062
RRIRDRPPRLPRPRPRPKPAPRP	0.278
RRIRPRPPRLPRPRPRPTIDPRP	-0.454
RRIRTRPPRLPRPRPRPREPPRP	1.21
RRIRERPPRLPRPRPRPMDHPRP	-0.0102
RRIRVRPPRLPRPRPRPCAKPRP	0.128
RRIRNRPPRLPRPRPRPDKTPRP	-0.0594
RRIRGRPPRLPRPRPRPNSNPRP	0.0841
RRIRHRPPRLPRPRPRPLKSPRP	-0.178
RRIRYRPPRLPRPRPRPWLNPRP	-0.367
RRIRNRPPRLPRPRPRPWYSPRP	-2.32
RRIRLRPPRLPRPRPRPRHAPRP	0.537
RRIRKRPPRLPRPRPRPGNIPRP	-0.0196
RRIRERPPRLPRPRPRPARIPRP	-0.246
RRIRLRPPRLPRPRPRPRKTPRP	0.0104
RRIRFRPPRLPRPRPRPERFPRP	-0.104
RRIRVRPPRLPRPRPRPGPSPRP	0.201
RRIRDRPPRLPRPRPRPPHRPRP	0.195
RRIRLRPPRLPRPRPRPDILPRP	-0.154
RRIRSRPPRLPRPRPRPHHGPRP	-0.0421
RRIRWRPPRLPRPRPRPIPDPRP	-0.0879
RRIRNRPPRLPRPRPRPAHAPRP	0.116

Sequence	shrunken log2 fold change
RRIRYRPPRLPRPRPRPFTVPRP	-0.177
RRIRLRPPRLPRPRPRPDANPRP	0.0586
RRIRHRPPRLPRPRPRPADDPRP	0.083
RRIRWRPPRLPRPRPRPMQDPRP	-0.13
RRIRDRPPRLPRPRPRPITFPRP	-0.822
RRIRKRPPRLPRPRPRPEDGPRP	1.9
RRIRCRPPRLPRPRPRPALKPRP	0.0946
RRIRDRPPRLPRPRPRPNFVPRP	-0.0655
RRIRMRPPRLPRPRPRPCYIPRP	-0.133
RRIRHRPPRLPRPRPRPPHTPRP	0.249
RRIRKRPPRLPRPRPRPENGPRP	0.0267
RRIRLRPPRLPRPRPRPFITPRP	-0.35
RRIRWRPPRLPRPRPRPHHFPRP	-0.0138
RRIRLRPPRLPRPRPRPKICPRP	0.0221
RRIRGRPPRLPRPRPRPMIWPRP	0.589
RRIRWRPPRLPRPRPRPPHPPRP	0.373
RRIRMRPPRLPRPRPRPIRFPRP	-0.133
RRIRWRPPRLPRPRPRPTCDPRP	0.388
RRIRARPPRLPRPRPRPHNYPRP	-0.303
RRIRRRPPRLPRPRPRPQDLPRP	0.0389
RRIRKRPPRLPRPRPRPAKCPRP	0.174
RRIRCRPPRLPRPRPRPKWRPRP	0.422
RRIRWRPPRLPRPRPRPLYFPRP	-0.613
RRIRNRPPRLPRPRPRPMELPRP	-0.182
RRIRMRPPRLPRPRPRPGSDPRP	1.4

Sequence	shrunken log2 fold change
RRIRSRPPRLPRPRPRPGRKPRP	0.133
RRIRSRPPRLPRPRPRPINPPRP	-0.447
RRIRFRPPRLPRPRPRPDWGPRP	0.00855
RRIRNRPPRLPRPRPRPLWSPRP	-0.0388
RRIRWRPPRLPRPRPRPNMIPRP	-0.114
RRIRYRPPRLPRPRPRPEMMPRP	-0.0745
RRIRCRPPRLPRPRPRPPKDPRP	0.261
RRIRARPPRLPRPRPRPNTYPRP	-0.627
RRIRFRPPRLPRPRPRPHCIPRP	-0.457
RRIRTRPPRLPRPRPRPPNYPRP	-0.101
RRIRWRPPRLPRPRPRPQQQPRP	0.108
RRIRARPPRLPRPRPRPYRHPRP	-0.157
RRIRRRPPRLPRPRPRPLGDPRP	0.682
RRIRSRPPRLPRPRPRPICSPRP	0.119
RRIRVRPPRLPRPRPRPPKEPRP	0.0261
RRIRFRPPRLPRPRPRPNQPPRP	-0.136
RRIRFRPPRLPRPRPRPFESPRP	0.0452
RRIRIRPPRLPRPRPRPFRKPRP	-0.169
RRIRARPPRLPRPRPRPMPHPRP	0.145
RRIRRRPPRLPRPRPRPVYQPRP	-0.384
RRIRPRPPRLPRPRPRPLGEPRP	-0.155
RRIRERPPRLPRPRPRPGCQPRP	0.0111
RRIRSRPPRLPRPRPRPKPHPRP	0.213
RRIRWRPPRLPRPRPRPLWHPRP	-0.0484
RRIRNRPPRLPRPRPRPTWLPRP	0.195
